Source: PMC3098868

Key:
[1] = target: human insulin receptor, isoform B (holoreceptor) (human) (UniProt P06213); test: radioligand binding; scintillation proximity assay (SPA): competition of [125I]TyrA14-labelled insulin binding to solubilized holoreceptor, with IR-specific antibody 83-7; analogues taken directly from yeast supernatant after conversion; four-parameter logistic model; affinity relative to human insulin within the same plate [IC50(insulin)/IC50(analogue) x 100%]; near physiological pH
[2] = target: human insulin receptor, isoform A (holoreceptor) (human) (UniProt P06213); test: as above
[3] = target: human insulin receptor, isoform B (holoreceptor) (human) (UniProt P06213); test: radioligand binding; scintillation proximity assay (SPA): competition of [125I]TyrA14-labelled insulin binding to solubilized holoreceptor, with IR-specific antibody 83-7; purified ligand (human insulin standard, tracer, purified unglycosylated [A8H, B25N]); near physiological pH

Row | relative affinity (IC50 insulin/IC50 analogue x 100%) (% of human insulin) [1] | relative affinity (IC50 insulin/IC50 analogue x 100%) (% of human insulin) [2] | fold difference in relative binding potency, IR-B over IR-A [3] [fold] | Substance
1 | 459 | 714 | – | [A8H, B25Y, B27E] desB30 insulin analogue (ligand)
2 | 44 | 22 | 2 | [A8H, B25N] desB30 insulin analogue (ligand)
3 | 82 | 43 | – | [A8H, B25H, B27D] desB30 insulin analogue (ligand)
4 | 8 | 4 | – | [B25N] desB30 insulin analogue (ligand)
5 | 140 | 67 | – | [A8H, B25H, B27E] desB30 insulin analogue (ligand)
6 | 38 | 10 | – | [A8H, B25N, B27D] desB30 insulin analogue (ligand)
7 | 57 | 15 | – | [A8H, B25N, B27E] desB30 insulin analogue (ligand)
8 | 24 | 10 | – | [A8H, B25A, B27E] desB30 insulin analogue (ligand)
9 | 308 | 308 | – | [A8H] desB30 insulin analogue (ligand)
